The Kd is the constant that tells how readily two partners part at equilibrium.

In one data set the target is Mmp53 (Mus musculus, UniProt P02340 1-390). The experiment in a line: fluorescence anisotropy, direct; 25 mM NaPi, 225 mM NaCl, 10% v/v glycerol, 5 mM DTT, 0.2 mg/mL BSA, 22°C; 20 nM labelled DNA; pH not stated for the binding assay. Conditions: protein: recombinant; tags: N-terminal 6xHis-lipoyl-TEV tag, cleaved; chain copies: 4; label: 5'-Alexa488. For orientation: Polarisation of emitted light reports the rotation of a fluorescent probe.
Chain of Mmp53 (P02340 whole entry): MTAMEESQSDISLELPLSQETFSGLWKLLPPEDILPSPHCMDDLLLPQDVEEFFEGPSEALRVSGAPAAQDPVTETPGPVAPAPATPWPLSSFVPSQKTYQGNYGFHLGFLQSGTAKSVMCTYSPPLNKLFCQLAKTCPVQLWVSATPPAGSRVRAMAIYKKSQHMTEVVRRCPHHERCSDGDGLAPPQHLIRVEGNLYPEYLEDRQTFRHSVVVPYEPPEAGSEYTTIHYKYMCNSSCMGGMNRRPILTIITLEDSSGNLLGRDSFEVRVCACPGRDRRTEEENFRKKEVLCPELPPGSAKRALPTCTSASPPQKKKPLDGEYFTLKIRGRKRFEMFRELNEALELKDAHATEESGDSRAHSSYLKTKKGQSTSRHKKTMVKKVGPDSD

Data set [1] addresses T1, ΔNp63β (Homo sapiens, UniProt Q9H3D4-4 1-461).
T1 sequence: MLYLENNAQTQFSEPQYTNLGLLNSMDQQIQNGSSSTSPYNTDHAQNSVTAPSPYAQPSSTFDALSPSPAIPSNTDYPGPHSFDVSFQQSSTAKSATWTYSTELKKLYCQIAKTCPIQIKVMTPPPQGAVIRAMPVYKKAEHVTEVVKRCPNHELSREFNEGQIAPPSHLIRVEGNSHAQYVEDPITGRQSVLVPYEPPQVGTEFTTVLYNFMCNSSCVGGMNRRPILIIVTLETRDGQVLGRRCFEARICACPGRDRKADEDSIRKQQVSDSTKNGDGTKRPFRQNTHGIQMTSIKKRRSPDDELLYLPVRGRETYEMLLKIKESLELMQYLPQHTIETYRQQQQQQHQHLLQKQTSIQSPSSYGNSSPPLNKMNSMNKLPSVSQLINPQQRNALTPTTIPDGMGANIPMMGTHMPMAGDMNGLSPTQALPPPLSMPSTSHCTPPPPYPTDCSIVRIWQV
Described as above. Conditions: protein: recombinant; tags: N-terminal 6xHis-lipoyl-TEV tag, cleaved; chain copies: 4; label: 5'-Alexa488.

A further data set addresses T2, ΔNp73β (Homo sapiens, UniProt O15350-9 1-450).
T2 sequence: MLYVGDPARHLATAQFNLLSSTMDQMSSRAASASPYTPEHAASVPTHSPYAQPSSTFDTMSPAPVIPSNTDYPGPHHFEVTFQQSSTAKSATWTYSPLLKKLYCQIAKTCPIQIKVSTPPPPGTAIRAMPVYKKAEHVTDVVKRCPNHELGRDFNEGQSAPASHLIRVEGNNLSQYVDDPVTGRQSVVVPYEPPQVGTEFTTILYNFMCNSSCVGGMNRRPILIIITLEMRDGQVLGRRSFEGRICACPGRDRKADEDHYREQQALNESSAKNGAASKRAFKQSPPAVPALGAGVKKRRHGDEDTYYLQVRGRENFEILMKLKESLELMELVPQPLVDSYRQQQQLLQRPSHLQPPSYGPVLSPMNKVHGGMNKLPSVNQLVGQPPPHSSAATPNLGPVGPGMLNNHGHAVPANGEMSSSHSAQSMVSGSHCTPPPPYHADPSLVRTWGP
The description is as above. Conditions: protein: recombinant; tags: N-terminal 6xHis-lipoyl-TEV tag, cleaved; chain copies: 4; label: 5'-Alexa488.

The target of data set [2] is T3, p73CT (Homo sapiens, UniProt O15350 104-383).
T3 sequence: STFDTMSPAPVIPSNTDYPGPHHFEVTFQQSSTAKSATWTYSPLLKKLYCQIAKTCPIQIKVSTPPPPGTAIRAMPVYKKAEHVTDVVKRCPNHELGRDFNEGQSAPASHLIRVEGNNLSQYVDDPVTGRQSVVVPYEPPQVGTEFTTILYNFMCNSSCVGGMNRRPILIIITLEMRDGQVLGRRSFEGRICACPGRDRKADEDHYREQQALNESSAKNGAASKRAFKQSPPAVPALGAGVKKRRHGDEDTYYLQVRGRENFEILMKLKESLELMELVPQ
Described as above. Conditions: protein: recombinant; tags: N-terminal 6xHis-lipoyl-TEV tag, cleaved; chain copies: 4; label: 5'-Alexa488.

Data set [3] deals with T1, ΔNp63β. The experiment in a line: fluorescence anisotropy competition titration; 25 mM sodium phosphate (purification buffer pH 7.2), 225 mM NaCl, 10% v/v glycerol, 5 mM DTT, 0.2 mg/mL BSA, 22 C. Conditions: protein: recombinant; tags: N-terminal 6xHis-lipoyl-TEV tag, cleaved; chain copies: 4.
Data set [4] has as its target T3, p73CT. The data set is described as above. To be noted: protein: recombinant; tags: N-terminal 6xHis-lipoyl-TEV tag, cleaved; chain copies: 4.
In the next data set the target is T4, Drp53 (Danio rerio, UniProt P79734 1-373).
T4 sequence: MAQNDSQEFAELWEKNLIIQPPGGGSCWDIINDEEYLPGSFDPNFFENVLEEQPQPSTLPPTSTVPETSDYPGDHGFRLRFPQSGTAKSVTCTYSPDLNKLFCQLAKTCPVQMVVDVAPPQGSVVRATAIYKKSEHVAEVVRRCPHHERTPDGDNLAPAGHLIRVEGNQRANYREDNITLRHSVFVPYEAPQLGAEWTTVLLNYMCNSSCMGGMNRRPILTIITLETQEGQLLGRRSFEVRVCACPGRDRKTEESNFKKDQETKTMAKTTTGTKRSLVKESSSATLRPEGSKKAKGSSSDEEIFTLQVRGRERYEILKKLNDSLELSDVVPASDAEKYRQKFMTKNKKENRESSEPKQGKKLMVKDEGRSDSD
The description is as above. To be noted: protein: recombinant; tags: N-terminal 6xHis-lipoyl-TEV tag, cleaved; chain copies: 4.

Another data set concerns the target Hsp53 (Homo sapiens, UniProt P04637 1-393). The description is as above. To be noted: protein: recombinant; tags: N-terminal 6xHis-lipoyl-TEV tag, cleaved; chain copies: 4.
Another data set concerns the target Xlp53 (Xenopus laevis, UniProt Q7T1D0 1-362). The experiment in a line: anisotropy competition; 25 mM NaPi, 225 mM NaCl, 10% v/v glycerol, 5 mM DTT, 0.2 mg/mL BSA, 22°C; 20 nM labelled DNA; pH not stated for the binding assay. Conditions: protein: recombinant; tags: N-terminal 6xHis-lipoyl-TEV tag, cleaved; chain copies: 4.

Chain of Hsp53 (P04637 whole entry): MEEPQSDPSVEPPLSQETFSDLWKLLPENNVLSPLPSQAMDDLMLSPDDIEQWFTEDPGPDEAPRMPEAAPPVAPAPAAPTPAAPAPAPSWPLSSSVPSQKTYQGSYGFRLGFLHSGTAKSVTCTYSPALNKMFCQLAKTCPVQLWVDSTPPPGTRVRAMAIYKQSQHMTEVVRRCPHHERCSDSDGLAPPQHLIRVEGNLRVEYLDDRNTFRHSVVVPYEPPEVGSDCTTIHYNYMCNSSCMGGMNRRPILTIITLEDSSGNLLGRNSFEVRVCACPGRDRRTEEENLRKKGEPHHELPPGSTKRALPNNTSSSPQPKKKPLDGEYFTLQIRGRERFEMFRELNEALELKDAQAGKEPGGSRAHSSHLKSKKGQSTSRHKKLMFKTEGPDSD
Chain of Xlp53 (Q7T1D0 entry or part of it): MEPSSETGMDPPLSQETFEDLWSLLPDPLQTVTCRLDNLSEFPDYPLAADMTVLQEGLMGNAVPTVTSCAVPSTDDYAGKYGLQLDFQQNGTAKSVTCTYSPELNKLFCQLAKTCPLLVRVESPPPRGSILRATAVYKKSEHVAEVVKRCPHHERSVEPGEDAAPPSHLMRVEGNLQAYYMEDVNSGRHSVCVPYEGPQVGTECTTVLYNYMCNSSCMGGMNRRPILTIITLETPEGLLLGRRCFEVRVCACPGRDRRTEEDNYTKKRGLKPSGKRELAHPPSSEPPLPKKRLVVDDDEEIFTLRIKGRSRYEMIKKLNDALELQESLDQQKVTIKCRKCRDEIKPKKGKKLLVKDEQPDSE

B1: Ref_Alexa488 (dsDNA)
DNA 1: GGACATGTCCGGACATGTCC
DNA 2: GGACATGTCCGGACATGTCC
As to B1, the Kd with Mmp53 was -7.02 ± 0.04 log10(M); with ΔNp63β [1] it was -7.13 ± 0.04 log10(M); in the data set with ΔNp73β it was -7.26 ± 0.02 log10(M); with p73CT [2], -6.62 ± 0.04 log10(M).

B2: Ref competitor (dsDNA)
DNA 1: CGCGGACATGTCCGGACATGTCCCGC
DNA 2: GCGGGACATGTCCGGACATGTCCGCG
As to B2, the equilibrium dissociation constant (Kd) with ΔNp63β [3] was 35.5 nM; in the data set with p73CT [4], 148 nM; with Drp53, 38 nM; with Hsp53, 75.9 nM; in the data set with Xlp53, -7.08 log10(M).

(Values after PMC2807882, “Conservation of DNA-binding specificity and oligomerisation properties within the p53 family”.)
